Here are results for six molecules from patent US20120195913A1 (Novartis, published 2012).

Changes are numbered by the printed parent chain.

T1: human BAFF receptor (BAFFR) (human, UniProt Q96RJ3 1-184)
T1 sequence: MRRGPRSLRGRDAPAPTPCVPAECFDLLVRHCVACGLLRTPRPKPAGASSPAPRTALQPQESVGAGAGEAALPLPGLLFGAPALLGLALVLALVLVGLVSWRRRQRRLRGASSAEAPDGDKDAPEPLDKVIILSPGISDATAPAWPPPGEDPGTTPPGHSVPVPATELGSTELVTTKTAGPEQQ

T2: BCMA on transfected HEK293 cells (UniProt Q02223 1-184, limits assumed)
T2 construct: whole, on cells
T2 sequence (looked up): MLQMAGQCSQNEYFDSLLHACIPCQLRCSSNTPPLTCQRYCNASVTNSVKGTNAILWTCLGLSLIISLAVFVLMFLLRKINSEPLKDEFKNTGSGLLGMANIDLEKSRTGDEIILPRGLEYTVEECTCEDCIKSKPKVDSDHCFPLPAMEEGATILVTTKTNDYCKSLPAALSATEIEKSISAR

T3: recombinant BCMA Fc-fusion protein (UniProt Q02223 1-54, limits assumed)
T3 construct: not shown: Fc part
T3 sequence (looked up): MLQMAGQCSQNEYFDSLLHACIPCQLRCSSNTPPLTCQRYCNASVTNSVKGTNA

T4: BAFFR:Fc fusion protein (human, UniProt Q96RJ3 1-78, biotinylated in the competition ELISA)
T4 construct: Bought reagent; also called human BAFFR:Fc; bio-BAFFR:Fc; not shown: Fc part of the bought fusion protein (Alexis / Axxora)
T4 sequence: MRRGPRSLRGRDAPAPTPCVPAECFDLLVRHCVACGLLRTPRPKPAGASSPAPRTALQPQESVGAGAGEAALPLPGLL

B1: MOR06743 Fab (Fab, V domains shown)
VH: QVQLQQSGPGLVKPSQTLSLTCAISGDSVSSNSAAWGWIRQSPGRGLEWLGRIYYRSKWYNSYAVSVKSRITINPDTSKNQFSLQLNSVTPEDTAVYYCARYDWVPKIGVFDSWGQGTLVTVSS
VL: DIVLTQSPATLSLSPGERATLSCRASQMIDLRYLSWYQQKPGQAPRLLIYGSSSRATGVPARFSGSGSGTDFTLTISSLEPEDFAVYYCQQLYSSPMTFGQGTKVEIK
notes: Human Fab format; also called MOR6743
B2: MOR07342 Fab (Fab, V domains shown)
VH: B1 VH with S62N, D103K
VL: B1 VL with L92F, M97L
notes: Human Fab format
B3: MOR07348 Fab (Fab, V domains shown)
VH: B1 VH with S113L
VL: B1 VL with M28W, D30E, L31A, R32G
notes: Human Fab format; also called MOR7348; MOR007348
B4: MOR07347 Fab (Fab, V domains shown)
VH: B1 VH with D103Q
VL: B1 VL with M28E, D30L, L31P, R32E, L92F, M97L
notes: Human Fab format
B5: MOR07349 Fab (Fab, V domains shown)
VH: B1 VH with Y60W, S62D, S113G
VL: B1 VL with L92F, M97L
notes: Human Fab format
B6: MOR07685 Fab (Fab, V domains shown)
VH: B1 VH with D103Q
VL: B1 VL

The first assay concerns the target T1, human BAFF receptor (BAFFR). The assay is described as follows: cell-based or functional assay.
Regarding B1, the “B-cell proliferation Agonism EC50” value is over 187000 pM and the “B-cell proliferation Inhibition IC50” value was 2000 pM.
B2: the “B-cell proliferation Agonism EC50” value was over 187000 pM and the “B-cell proliferation Inhibition IC50” value worked out at 900 pM.
Consider B3, for which the “B-cell proliferation Agonism EC50” value is over 187000 pM and the “B-cell proliferation Inhibition IC50” value was determined as 2900 pM.
For B4, in that order: over 187000 pM and 1300 pM.
On the same counts, the results for B5 are over 187000 pM and 3500 pM.

Another assay concerns the target T2, BCMA on transfected HEK293 cells. The assay is described as follows: FACS on BCMA-transfected HEK293 cells. The method, then: In FACS the following Fabs are analyzed on BCMA-transfected HEK293 cells and titrated from 1 μM down to 0.005 nM: MOR06654, MOR06743, MOR07342, MOR07347, MOR7348 and MOR07349. At 330 nM only MOR07342 show an elevated binding signal which is 2-fold over background. All other tested Fabs show no signal at this concentration.
Turning to B3, the binding result is recorded as “no binding (tested: 1 µM)”.
On the same count and under the same terms, with B5 the entry was “no binding (tested: 1 µM)”.

Another assay has as its target T3, recombinant BCMA Fc-fusion protein. Briefly: ELISA titration on Fc-captured antigen. The method, then:
(§1) 384-well MaxiSorp plates are coated over night at 4° C. with a goat anti-human IgG, Fc γ fragment specific capture antibody. After coating the wells were washed twice with PBS/0.05% Tween20 (PBST) and then blocked for 1 h at RT with PBST containing 5% milk powder followed by two washing steps with PBST. Recombinant BCMA and TACI Fc-fusion proteins are added and captured for 1 h at RT. Then the purified and diluted BAFFR specific Fabs are added and the plates are incubated for 1 h at RT. To detect the Fabs, an alkaline phosphatase (AP)-conjugated goat anti-human IgG, Fab specific is added and the plates are incubated for 1 h at RT. Following each incubation step the wells are washed five times with PBST. For the detection of the AP-conjugates, AttoPhos (Roche) is used according to the manufacturer's instructions. Fluorescence is measured using a TECAN Spectrafluor plate reader.
(§2) In ELISA the Fabs are titrated from 400 nM down to 0.005 nM on […] captured to a Maxisorp plate via an anti-human Fc antibody. Only MOR07342 and MOR07346 show some cross-reactivity to BCMA at high Fab concentrations >100 nM. In contrast MOR06654, MOR07347, MOR07348, MOR07349 show no binding to BCMA above background. A 1000-fold discrimination factor is met by all Fabs.
A general note: An ELISA detects its analyte on a solid surface through an enzyme-linked reagent.
In the case of B2, the “discrimination factor (BAFFR over BCMA)” value was at least 1000 fold.
The same measure, in the same setting: with B3 the figure was at least 1000 fold.
The same measure, in the same setting: the value for B4 was at least 1000 fold.
The same measure, in the same setting: with B5 the figure was at least 1000 fold.

A further assay has the same target. The assay is described as follows: ELISA on Fc-captured recombinant BCMA Fc-fusion. On the procedure: as §1, §2
Consider B3, for which the binding result is reported as “no binding (tested: titrated from 400 nM down to 0.005 nM)”.
Still for that read-out and setting: the value for B4 was “no binding (tested: titrated from 400 nM down to 0.005 nM)”; that for B5 was “no binding (tested: titrated from 400 nM down to 0.005 nM)”.

In another assay the target is T1, human BAFF receptor (BAFFR). The assay is described as follows: FACS titration of Fab on Raji cells (endogenous BAFFR). The method, then: (§3) The EC₅₀ of the Fabs is determined by Fab titration in FACS on transfected HEK293 cells as well as on Raji cells expressing endogenous BAFFR.
With B2, the EC50 (in general, the concentration at which the effect is half-maximal) turned out to be 60 pM. This counts as picomolar.
The molecule B3 came in with a concentration for a half-maximal effect (EC50) of 120 pM.
Same read-out and setting: the value for B5 was 130 pM.

Another assay shares this target. The assay is described as follows: FACS titration of Fab on transfected HEK293-hBAFFR cells. On the procedure: as §3
The molecule B2 came in with an EC50 of 180 pM.
On the same count and under the same terms, the value for B3 was 240 pM; that for B4 was 80 pM; that for B5 was 240 pM.

The next assay concerns the target T4, BAFFR:Fc fusion protein. The assay is described as follows: BLyS/BAFFR:Fc competition ELISA; antibody titrated, BLyS coated. The method, then: 96-well MaxiSorp plates are coated over night at 4° C. with human soluble BLyS. After coating, the wells were washed 4 times with PBS/0.05% Tween20 (PBST) and then blocked for 1 h at 37° C. with PBST containing 1% bovine serum albumin followed by 4 washing steps with PBST. Biotinylated human BAFFR:Fc fusion protein (Axxora) at 20 ng/ml was added and captured for 1 h at 37° C. together with increasing concentrations of anti-BAFFR antibodies. After another washing round, ExtrAvidin-Alkaline Phosphatase (Sigma) was added to the wells and incubated for 30 minutes at 37° C. The bound phosphatase was detected by adding a solution containing p-nitrophenyl phosphate in diethanolamin (Sigma). The color reaction was stopped after ca. 20 minutes with an equal volume of 2N sodium hydroxide and the absorbance was measured at 405 nm on a plate reader (SpectraMax 190, Molecular Devices).
For the molecule B1, the IC50 (as a rule, the concentration at which inhibition is half-maximal) was found to be 100 pM. This lies in the sub-nanomolar range.
Consider B2, for which the IC50 stood at 140 pM. This IC50 and that of the molecule before are within 1.5-fold of each other.
The same measure, in the same setting: the value for B3 was 960 pM; that for B4 was 100 pM.
B5 had an IC50 of 440 pM.

Another assay deals with T1, human BAFF receptor (BAFFR). Briefly: competition FACS on Raji cells; Fab titrated, competitor biotinylated hsBLyS. On the procedure:
The BAFFR-BLyS binding assay is performed using Raji cells expressing endogenous BAFFR. The BAFFR specific Fabs are used in final dilutions ranging from 40 to 0.001 nM. The diluted Fabs are incubated in 96-well plates with 5×10⁴ Raji cells per well for 1 h at 4° C. on a shaker. Then biotinylated hsBLyS is added in a final concentration of 25 ng/ml and the cells were incubated for 30 min at 4° C. on a shaker. The cells are washed twice with FACS buffer and then resuspended in phycoerythrin-conjugated Streptavidin (Dianova) which has been diluted 1:200 in FACS buffer. The staining is performed for one hour at 4° C. on a shaker. Finally the cells are washed twice with FAGS buffer, resuspended in FACS buffer and BLyS binding to cell surface BAFFR is detected via fluorescence cytometry in the FACSArray instrument (Becton Dickinson).
The IC50 values of the antibodies of the invention in a human Fab format are determined in a BAFFR-BLyS binding inhibition assay by Fab titration on Raji cells (FACS).
Molecule B2 gave an IC50 of 90 pM.
Take B3: the half-maximal inhibitory concentration (IC50) worked out at 200 pM.
The same measure, in the same setting: the value for B4 was 20 pM; that for B6 was 120 pM; that for B5 was 170 pM.
